Experimental data reported in article PMC9328131.
Where two headings read alike, the source gives them in different places.

B1: 32-mer dsDNA (dsDNA)
DNA 1: AGTGATCAGTGGTTACGTAACCACTGATCACT
DNA 2: AGTGATCAGTGGTTACGTAACCACTGATCACT

Columns and labels:
Test in all cases: EMSA
Ecm16 [1] = molecular target: T1, Ecm16 (Streptomyces lasalocidi, UniProt Q0X0A9 1-792)
T1 sequence: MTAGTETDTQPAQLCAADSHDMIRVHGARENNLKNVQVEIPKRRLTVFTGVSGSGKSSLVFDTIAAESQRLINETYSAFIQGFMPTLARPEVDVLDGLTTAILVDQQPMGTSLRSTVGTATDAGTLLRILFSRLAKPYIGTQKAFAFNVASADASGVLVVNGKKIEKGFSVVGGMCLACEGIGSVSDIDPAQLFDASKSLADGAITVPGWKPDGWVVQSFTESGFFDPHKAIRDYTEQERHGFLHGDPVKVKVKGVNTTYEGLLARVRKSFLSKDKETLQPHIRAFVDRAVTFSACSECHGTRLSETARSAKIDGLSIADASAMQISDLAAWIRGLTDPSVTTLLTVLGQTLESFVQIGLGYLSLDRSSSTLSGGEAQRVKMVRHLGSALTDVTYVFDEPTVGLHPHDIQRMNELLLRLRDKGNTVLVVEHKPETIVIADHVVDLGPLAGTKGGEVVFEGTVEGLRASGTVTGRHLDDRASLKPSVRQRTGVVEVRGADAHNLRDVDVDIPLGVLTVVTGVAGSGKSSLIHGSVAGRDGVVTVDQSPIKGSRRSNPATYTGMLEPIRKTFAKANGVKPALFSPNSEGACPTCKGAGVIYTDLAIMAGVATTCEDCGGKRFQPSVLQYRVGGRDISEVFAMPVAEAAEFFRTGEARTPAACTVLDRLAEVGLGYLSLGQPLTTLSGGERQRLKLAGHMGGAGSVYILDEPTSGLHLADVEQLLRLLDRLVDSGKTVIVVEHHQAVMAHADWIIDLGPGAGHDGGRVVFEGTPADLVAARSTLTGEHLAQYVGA

Ecm16 [2] = molecular target: T1, Ecm16; remark: listed apart in the source
Ecm16 [3] = molecular target: T1, Ecm16; remark: listed apart in the source

Binder	Kd (Ecm16 [1]) [nM]	Kd (Ecm16 [2]) [nM]	Kd (Ecm16 [3]) [nM]
B1	34.8	20.6	–
AGTGATCAGTGGTTACGTAACCACTGATCACT (ssDNA) [32-mer ssDNA]	–	–	39.6
